Laboratory results published in publication PMC10855902 (International Journal of Molecular Sciences, 2024).

Experiments:
Settings in all cases: both partners purified
[1] = biological target: T1, Recombinant human EGFR protein (Active) (ab155639) (human, UniProt P00533 25-645, labelled with RED-tris-NTA 2nd Generation dye); test: MST; RED-tris-NTA-labelled EGFR 25 nM, ligand in a 16-step 1:1 dilution series in PBS-T, 30 min at room temperature; assay concentration of the ligand 463 μM
T1 construct: epidermal growth factor receptor (EGFR, ErbB-1), human, recombinant; also called EGF receptor; ErbB-1; source: bought: Abcam (ab155639), recombinant

[2] = biological target: T1, Recombinant human EGFR protein (Active) …; test: MST; RED-tris-NTA-labelled EGFR 25 nM, ligand in a 16-step 1:1 dilution series in PBS-T, 30 min at room temperature; assay concentration of the ligand 1 mM
[3] = biological target: T1, Recombinant human EGFR protein (Active) …; test: MST; RED-tris-NTA-labelled EGFR 25 nM, ligand in a 16-step 1:1 dilution series in PBS-T, 30 min at room temperature; assay concentration of the ligand 100 μM
[4] = biological target: T1, Recombinant human EGFR protein (Active) …; test: MST; RED-tris-NTA-labelled EGFR 25 nM, ligand in a 16-step 1:1 dilution series in PBS-T, 30 min at room temperature; assay concentration of the ligand 3 mM
[5] = biological target: T1, Recombinant human EGFR protein (Active) …; test: MST; RED-tris-NTA-labelled EGFR 25 nM, ligand in a 16-step 1:1 dilution series in PBS-T, 30 min at room temperature; assay concentration of the ligand 50 μM
[6] = biological target: T1, Recombinant human EGFR protein (Active) …; test: MST; RED-tris-NTA-labelled EGFR 25 nM, ligand in a 16-step 1:1 dilution series in PBS-T, 30 min at room temperature; assay concentration of the ligand 10 mM
[7] = biological target: T1, Recombinant human EGFR protein (Active) …; test: MST; RED-tris-NTA-labelled EGFR 25 nM, ligand in a 16-step 1:1 dilution series in PBS-T, 30 min at room temperature; assay concentration of the ligand 5 mM
[8] = biological target: T1, Recombinant human EGFR protein (Active) …; test: MST; RED-tris-NTA-labelled EGFR 25 nM, ligand in a 16-step 1:1 dilution series in PBS-T, 30 min at room temperature; assay concentration of the ligand 2.5 mM
[9] = biological target: T1, Recombinant human EGFR protein (Active) …; test: MST; RED-tris-NTA-labelled EGFR 25 nM, ligand in a 16-step 1:1 dilution series in PBS-T, 30 min at room temperature; assay concentration of the ligand 6.02 mM
[10] = biological target: T1, Recombinant human EGFR protein (Active) …; test: MST; RED-tris-NTA-labelled EGFR 25 nM, ligand in a 16-step 1:1 dilution series in PBS-T, 30 min at room temperature; assay concentration of the ligand 250 μM

Row | Binder | Kd [1] | Kd [2] | Kd [3] | Kd [4] | Kd [5] | Kd [6] | Kd [7] | Kd [8] | Kd [9] | Kd [10]
1 | HDGYCLHDGVCMY (EGF, human, residues 10-22; numbers count on: the mature protein; source: synthetic peptide (SPPS, Fmoc; crude, without preparative HPLC)) [EGF fragment 10–22 (HDGYCLHDGVCMY)] | 21.2 µM | 35.9 µM | 8.2 µM | 416 µM | 0.0705 µM |  |  |  |  | 
2 | HDGYCL (EGF, human, residues 10-15; numbers count on: the mature protein; also called 10–15 EGF fragment; source: synthetic peptide (SPPS, Fmoc; crude, without preparative HPLC)) [EGF fragment 10–15 (HDGYCL)] |  |  | 0.0174 µM |  | 0.0664 µM | 533 µM | 663 µM | 431 µM | 715 µM | 48.4 µM
